We go through two substances from article PMC10955495.

Assay [1] deals with Cluc‐PtoE2Fa (Populus tomentosa). Nature of the assay: split reporter (BiFC, NanoBiT); LCI of Cluc-PtoE2Fa with PtoDPb1^Hap1/Hap2-Nluc in young N. benthamiana leaves with co-expressed PtoWAK106-GFP (compared with GFP).
The target is the same in assay [2]. Put plainly: split reporter (BiFC, NanoBiT); luciferase complementation imaging (LCI): firefly luciferase complementation (Nluc / Cluc fusions) in young N. benthamiana leaves; three biological replicates.
In assay [3] the target is Cluc‐PtoWAK106 (Populus tomentosa). The assay is described as above.

Take PtoDPb1^Hap2‐Nluc (natural protein): the fold increase in luciferase activity with PtoWAK106-GFP against GFP in assay [1] was 3.8 fold.

For the substance PtoDPb1^Hap1‐Nluc (natural protein), in assay [1], the fold increase in luciferase activity with PtoWAK106-GFP against GFP is 3.61 fold and the luciferase intensity with PtoWAK106-GFP, percent higher than with PtoDPb1^Hap2 was 47.3%. Further, the luciferase activity, percent stronger than with PtoDPb1^Hap2 in assay [2] came to 85.8%. Also, the luciferase activity, percent higher than with PtoDPb1^Hap2 in assay [3] was 37%.
